Numbering of substitutions follows the chain as printed.
T1: Rhesus CD122 His tag (rhesus monkey, UniProt Q38J85 27-240 (cynomolgus entry))
T1 construct: also called rhCD122; cynomolgus and/or rhesus monkey CD122 His tag; not shown: His tag
T1 sequence: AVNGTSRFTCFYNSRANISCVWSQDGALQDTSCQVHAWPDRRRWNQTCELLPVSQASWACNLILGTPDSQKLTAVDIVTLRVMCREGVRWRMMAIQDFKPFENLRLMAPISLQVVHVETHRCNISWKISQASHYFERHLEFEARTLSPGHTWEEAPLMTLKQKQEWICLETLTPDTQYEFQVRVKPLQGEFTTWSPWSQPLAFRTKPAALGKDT

T2: Human CD122 His tagged (human, UniProt P14784 27-240)
T2 construct: also called hCD122; monomeric antigen; not shown: His tag
T2 sequence: T1 sequence with R7Q, T66A, A74T, M83L, M92V, K127E, M158L

T3: Human CILP2 protein (human, UniProt Q8IUL8 21-1156, limits assumed)
T3 construct: also called cartilage intermediate layer protein 2
T3 sequence (looked up): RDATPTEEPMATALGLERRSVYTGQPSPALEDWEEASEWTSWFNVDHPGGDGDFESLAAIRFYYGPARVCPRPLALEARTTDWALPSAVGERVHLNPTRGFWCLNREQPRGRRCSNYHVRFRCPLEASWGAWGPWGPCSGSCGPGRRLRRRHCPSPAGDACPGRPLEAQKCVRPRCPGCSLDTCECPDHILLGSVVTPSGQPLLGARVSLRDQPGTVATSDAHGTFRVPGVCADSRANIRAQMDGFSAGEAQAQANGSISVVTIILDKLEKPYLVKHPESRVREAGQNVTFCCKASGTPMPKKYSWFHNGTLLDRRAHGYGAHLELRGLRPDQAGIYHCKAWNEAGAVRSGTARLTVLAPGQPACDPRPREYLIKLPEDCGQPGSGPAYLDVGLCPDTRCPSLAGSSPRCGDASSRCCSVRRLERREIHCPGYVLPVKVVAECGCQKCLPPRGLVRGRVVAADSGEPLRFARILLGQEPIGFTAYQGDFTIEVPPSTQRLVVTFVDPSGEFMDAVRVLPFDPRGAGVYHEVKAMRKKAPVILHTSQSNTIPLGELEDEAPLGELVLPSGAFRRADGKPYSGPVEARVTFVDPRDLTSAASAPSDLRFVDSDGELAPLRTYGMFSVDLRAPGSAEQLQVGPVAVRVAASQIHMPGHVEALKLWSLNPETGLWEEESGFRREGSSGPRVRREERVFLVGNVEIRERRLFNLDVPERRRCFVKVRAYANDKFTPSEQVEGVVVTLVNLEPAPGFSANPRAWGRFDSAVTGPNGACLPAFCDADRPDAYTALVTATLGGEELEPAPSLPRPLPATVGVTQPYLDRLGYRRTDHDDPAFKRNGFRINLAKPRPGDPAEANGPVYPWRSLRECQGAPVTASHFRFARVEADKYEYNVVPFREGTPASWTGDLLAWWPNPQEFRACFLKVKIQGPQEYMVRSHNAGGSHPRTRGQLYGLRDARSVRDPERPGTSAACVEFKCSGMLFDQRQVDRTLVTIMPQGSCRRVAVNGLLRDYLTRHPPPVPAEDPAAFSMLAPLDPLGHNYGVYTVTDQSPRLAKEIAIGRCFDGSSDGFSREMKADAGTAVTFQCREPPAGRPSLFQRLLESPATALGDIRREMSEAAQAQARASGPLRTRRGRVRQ

T4: Human BCAM protein (human, UniProt P50895 32-547, limits assumed)
T4 construct: Protein used in ELISA; also called BCAM (ELISA antigen)
T4 sequence: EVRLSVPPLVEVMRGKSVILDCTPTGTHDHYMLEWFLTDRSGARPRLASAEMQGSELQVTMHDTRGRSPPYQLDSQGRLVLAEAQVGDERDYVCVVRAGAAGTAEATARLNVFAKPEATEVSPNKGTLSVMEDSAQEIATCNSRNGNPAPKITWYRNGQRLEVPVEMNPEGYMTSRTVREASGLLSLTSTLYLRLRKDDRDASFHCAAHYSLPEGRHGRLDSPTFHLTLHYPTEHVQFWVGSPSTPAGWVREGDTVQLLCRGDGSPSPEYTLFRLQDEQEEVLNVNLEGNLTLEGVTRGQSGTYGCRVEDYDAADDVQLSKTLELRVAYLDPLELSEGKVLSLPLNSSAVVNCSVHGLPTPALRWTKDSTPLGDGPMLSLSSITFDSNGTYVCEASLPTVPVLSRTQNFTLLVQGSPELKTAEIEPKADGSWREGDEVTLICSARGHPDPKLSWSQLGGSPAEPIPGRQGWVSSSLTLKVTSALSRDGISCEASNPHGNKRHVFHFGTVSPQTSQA

B1: FAB18 (Fab, V domains shown)
VH: EVQLLESGGGLVQPGGSLRLSCAASGFSVTSYGVHWIRQAPGKGLEWLGVIWSGGSTDYNAAFISRLTISKDNSKNTVYFQMNSLRAEDTAVYYCARAGDYNYDGFAYWGQGTLVTVSS
VL: DIQMTQSPSSLSASVGDRVTITCQASSSVSFMYWYQQRPGKAPRLLIYDTSNLASGVPSRFSGSGSGTSYTFTISSLQPEDIATYYCQQWSTYPLTFGQGTKVEIK
notes: 06F11-V optimization variant; also called Fab version of MAB18
B2: FAB15 (Fab, V domains shown)
VH: B1 VH with Y101A
VL: B1 VL
notes: 06F11-V optimization variant; also called Fab version of MAB15
B3: FAB12 (Fab, V domains shown)
VH: B1 VH with S28T, G33A, I37V
VL: B1 VL
notes: 06F11-V optimization variant
B4: FAB01 (Fab, V domains shown)
VH: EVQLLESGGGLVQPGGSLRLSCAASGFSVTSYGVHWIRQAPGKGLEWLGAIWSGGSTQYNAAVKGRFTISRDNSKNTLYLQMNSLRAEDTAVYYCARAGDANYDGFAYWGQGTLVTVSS
VL: B1 VL with S91D, Q99G
notes: 06F11-V optimization variant
B5: FAB11 (Fab, V domains shown)
VH: B1 VH with S28T, G33A, I37V
VL: B1 VL with S27Q, M32L
notes: 06F11-V optimization variant
B6: FAB09 (Fab, V domains shown)
VH: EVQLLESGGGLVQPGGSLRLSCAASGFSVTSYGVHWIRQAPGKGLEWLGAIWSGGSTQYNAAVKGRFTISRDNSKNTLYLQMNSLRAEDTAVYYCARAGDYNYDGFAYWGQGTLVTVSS
VL: B1 VL
notes: 06F11-V optimization variant
B7: FAB16 (Fab, V domains shown)
VH: B1 VH
VL: B1 VL with S91D, Q99G
notes: 06F11-V optimization variant
B8: FAB03 (Fab, V domains shown)
VH: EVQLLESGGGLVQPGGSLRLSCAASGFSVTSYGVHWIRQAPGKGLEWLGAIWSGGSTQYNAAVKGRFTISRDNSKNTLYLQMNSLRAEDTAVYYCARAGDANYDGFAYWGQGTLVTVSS
VL: B1 VL
notes: 06F11-V optimization variant
B9: FAB06 (Fab, V domains shown)
VH: B1 VH with S28T, G33A, I37V, Y101A
VL: B1 VL
notes: 06F11-V optimization variant; also called Fab version of MAB06
B10: FAB17 (Fab, V domains shown)
VH: B1 VH
VL: B1 VL with S27Q, M32L
notes: 06F11-V optimization variant; also called Fab version of MAB17
B11: FAB04 (Fab, V domains shown)
VH: B1 VH with S28T, G33A, I37V, Y101A
VL: B1 VL with S91D, Q99G
notes: 06F11-V optimization variant
B12: FAB10 (Fab, V domains shown)
VH: B1 VH with S28T, G33A, I37V
VL: B1 VL with S91D, Q99G
notes: 06F11-V optimization variant
B13: FAB14 (Fab, V domains shown)
VH: B1 VH with Y101A
VL: B1 VL with S27Q, M32L
notes: 06F11-V optimization variant; also called Fab version of MAB14
B14: FAB02 (Fab, V domains shown)
VH: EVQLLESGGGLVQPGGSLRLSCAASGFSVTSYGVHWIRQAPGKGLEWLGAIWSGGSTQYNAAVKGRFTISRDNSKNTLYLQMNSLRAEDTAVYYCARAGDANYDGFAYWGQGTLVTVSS
VL: B1 VL with S27Q, M32L
notes: 06F11-V optimization variant
B15: FAB07 (Fab, V domains shown)
VH: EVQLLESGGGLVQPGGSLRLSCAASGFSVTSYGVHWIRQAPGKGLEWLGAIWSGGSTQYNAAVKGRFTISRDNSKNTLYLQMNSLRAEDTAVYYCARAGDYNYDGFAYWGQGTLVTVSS
VL: B1 VL with S91D, Q99G
notes: 06F11-V optimization variant
B16: FAB05 (Fab, V domains shown)
VH: B1 VH with S28T, G33A, I37V, Y101A
VL: B1 VL with S27Q, M32L
notes: 06F11-V optimization variant; also called Fab version of MAB05
B17: FAB13 (Fab, V domains shown)
VH: B1 VH with Y101A
VL: B1 VL with S91D, Q99G
notes: 06F11-V optimization variant
B18: FAB08 (Fab, V domains shown)
VH: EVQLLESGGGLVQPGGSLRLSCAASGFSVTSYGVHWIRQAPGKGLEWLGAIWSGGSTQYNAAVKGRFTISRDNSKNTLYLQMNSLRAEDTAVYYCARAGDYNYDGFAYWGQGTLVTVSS
VL: B1 VL with S27Q, M32L
notes: 06F11-V optimization variant
B19: MAB14 (antibody, human IgG1, V domains shown)
VH: B1 VH with Y101A
VL: B1 VL with S27Q, M32L
notes: also called clone 14
B20: MAB17 (antibody, human IgG1, V domains shown)
VH: B1 VH
VL: B1 VL with S27Q, M32L
notes: also called clone 17

These binders were tested against T1, Rhesus CD122 His tag (assay: Biacore SPR, Fab).

Compared with B1, B2 is 1.9-fold lower in Kd: 8.55 nM for the first, 4.47 nM for the second. The second binds more tightly here.

B3 and B4 are within 1.5-fold of each other in Kd: 19.5 nM for the first, 14.4 nM for the second.

Compared with B5, B6 is 2.3-fold higher in Kd: 15.9 nM for the first, 36.5 nM for the second. The first binds more tightly here.

First: B7
Second: B8
The Kd of the first is 4.1-fold lower: 5.04 nM for the first, 20.6 nM for the second.

B9 and B10 are within 1.5-fold of each other in Kd: 9.78 nM for the first, 7.93 nM for the second.

Compared with B11, B12 is 1.8-fold higher in Kd: 9.26 nM for the first, 16.7 nM for the second.

Compared with B13, B14 is 6.4-fold higher in Kd: 3.52 nM for the first, 22.5 nM for the second. The first binds more tightly here.

First: B15
Second: B16
The Kd of the first is 1.8-fold higher: 16.3 nM for the first, 8.86 nM for the second. The second binds more tightly here.

First: B17
Second: B18
The Kd of the first is 9.4-fold lower: 3.25 nM for the first, 30.7 nM for the second.

What follows are binders tested against T2, Human CD122 His tagged (assay: Biacore SPR, Fab).

Going from B1 to B2, the Kd falls from 11.5 nM to 5.54 nM (2.1-fold).

Compared with B3, B4 is 1.5-fold higher in Kd: 21.8 nM for the first, 33.6 nM for the second. The first binds more tightly here.

Compared with B5, B6 is 4.1-fold higher in Kd: 17.7 nM for the first, 72.5 nM for the second. The first binds more tightly here.

First: B7
Second: B8
The Kd of the first is 4.5-fold lower: 8.56 nM for the first, 38.6 nM for the second. The first binds more tightly here.

B9 and B10 are within 1.5-fold of each other in Kd: 8.04 nM for the first, 10.7 nM for the second.

First: B11
Second: B13
The Kd of the first is 3.2-fold higher: 13.8 nM for the first, 4.34 nM for the second. The second binds more tightly here.

First: B14
Second: B15
The Kd of the first is 1.7-fold higher: 50.6 nM for the first, 30.1 nM for the second.

First: B16
Second: B17
The Kd of the first is 1.9-fold higher: 10.2 nM for the first, 5.37 nM for the second.

B18 showed a Kd of 41.2 nM.

Each binder was assayed against T5, Human neudesin protein (human, UniProt Q9UMX5 32-172) (assay: BIACORE SPR, Fab at 62.5, 125, 250, 500 and 1000 nM on human neudesin protein; Rmax).
T5 construct: also called NENF
T5 sequence (Q9UMX5 32-172 limits assumed): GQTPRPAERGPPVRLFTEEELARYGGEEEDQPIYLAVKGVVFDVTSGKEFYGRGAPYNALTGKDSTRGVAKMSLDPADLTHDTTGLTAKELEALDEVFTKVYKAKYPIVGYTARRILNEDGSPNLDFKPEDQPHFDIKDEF

B1: no binding (tested: 1000 nM).
B2: no binding (tested: 1000 nM).
B9: no binding (tested: 1000 nM).
B10: no binding (tested: 1000 nM).
B13: no binding (tested: 1000 nM).
B16: no binding (tested: 1000 nM).

These binders were tested against T3, Human CILP2 protein (assay: BIACORE SPR, Fab at 62.5, 125, 250, 500 and 1000 nM on human CILP2 protein; Rmax).

B1: no binding (tested: 1000 nM).
B2: no binding (tested: 1000 nM).
B9: no binding (tested: 1000 nM).
B10: no binding (tested: 1000 nM).
B13: no binding (tested: 1000 nM).
B16: no binding (tested: 1000 nM).

The binders below were run against T4, Human BCAM protein (assay: binding ELISA on human BCAM protein, IgG at log10 about 1.1 to 3.0 nM, OD450nm).

B19: binds.
B20: binds.

These binders were tested against T2, Human CD122 His tagged (assay: Biacore, Fab affinity and kinetics on hCD122).

Compared with B1, B2 is 2.1-fold lower in Kd: 11.5 nM for the first, 5.5 nM for the second. The second binds more tightly here.

B9 and B10 are within 1.5-fold of each other in Kd: 8 nM for the first, 10.7 nM for the second.

First: B13
Second: B16
The Kd of the first is 2.4-fold lower: 4.3 nM for the first, 10.2 nM for the second. The first binds more tightly here.

B1 and B2 are within 1.5-fold of each other in koff: 0.0039 s⁻¹ for the first, 0.0034 s⁻¹ for the second.

B9 and B10 are within 1.5-fold of each other in koff: 0.0044 s⁻¹ for the first, 0.0046 s⁻¹ for the second.

First: B13
Second: B16
The koff of the first is 1.6-fold lower: 0.0037 s⁻¹ for the first, 0.0058 s⁻¹ for the second.

Going from B1 to B2, the kon rises from 340000 M⁻¹ s⁻¹ to 610000 M⁻¹ s⁻¹ (1.8-fold).

B9 and B10 are within 1.5-fold of each other in kon: 540000 M⁻¹ s⁻¹ for the first, 430000 M⁻¹ s⁻¹ for the second.

B13 and B16 are within 1.5-fold of each other in kon: 850000 M⁻¹ s⁻¹ for the first, 570000 M⁻¹ s⁻¹ for the second.

From patent US20230357420A1 (VILLARIS THERAPEUTICS, published 2023)
